Reference: patent US6770739B1, “Enhancers of CFTR chloride channel function” (Case Western Reserve University, priority 1999, dated 2004)

How the values were obtained:
wt-CFTR channel = target: T1, wt-CFTR channel (Homo sapiens, UniProt P13569); assay: Single channel recording of wt-CFTR reconstituted in planar lipid bilayer; type: biochemical
T1 construct: made in house; host or cells: 293-EBNA HEK cells (Invitrogen), transient transfection with pCEP4(wt); microsomal membrane vesicles
Procedure: (§1) To test whether the NEG2 region is responsible for both stimulatory and inhibitory interactions between the R domain and other domains, synthetic NEG2, a 22 amino acid peptide, was added to the cis-intracellular side of single CFTR channels captured in the planar lipid bilayer (FIG. 3). […] After peptide addition, there are periods of intense stimulation that last 4 to 8 minutes. These stimulatory periods are followed by either a return to the basal level of activity before peptide addition, or by an almost complete inhibition of the channel, where only a flickery 3 pS conductance is observed.
In order to understand the mechanism responsible for the increase in open probability, the gating kinetics of wt-CFTR without peptide and during stimulation by synthetic NEG2 were analyzed. […] Thus, the increase in the open probability is not due to a change in the closing rate of the channel. However, the closed time distribution for the stimulated channel is clearly shifted to the left compared to the control channel (FIG. 4B). There are three components to the closed state, a fast (τc1), an intermediate (τc2) and a long (τc3) closed component. The fast closed component is probably due to closings within a burst (Carson et al., 1995). Therefore, to identify better the closed times between bursts, a delimiter of τc=40 ms was set at the nadir between the fast and intermediate closed times (illustrated by the arrow in FIG. 4B) to generate the closed-burst duration histograms. […] Thus, the interaction of NEG2 with CFTR increased the intermediate-opening rate of the channel. This increase in opening rate is similar to that observed when the phosphorylated R domain protein (amino acids 645-834) was added to CFTR-ΔR/S660A in excised, inside-out patches (Winter and Welsh, 1997). Additionally, modification of C832, which resides within NEG2, by N-ethylrnaleimide (NEM) results in irreversible stimulation of PKA-phosphorylated CFTR chloride channel activity (Cotten and Welsh, 1997), further emphasizing the importance of NEG2 in CFTR regulation.
A human embryonic kidney cell line (293-EBNA HEK; Invitrogen) was used for transfection and expression of the CFTR proteins (Ma et al., 1997, Ma et al., 1996, Xie et al., 1995). The HEK-293 cell line contains a pCMV-EBNA vector, which constitutively expresses the Epstein-Barr virus nuclear antigen-1 (EBNA-1) gene product and increases the transfection efficiency of Epstein-Barr virus-based vectors. The cells were maintained in Dulbecco's Modified Eagle Medium with 10% FBS and 1% L-glutamine. Geneticin (G418, 250 (g/ml) was added to the cell culture medium to maintain selection of the cells containing the pCMV-EBNA vector. Lipofectamine reagent (Life Technologies, Inc) in Optimem media (serum-free) was used to transfect the HEK-293 cells with pCEP4(wt), pCEP4(ΔNEG1), or pCEP4(ΔNEG2). After 5 hours, serum was added to the media (10% final serum concentration). Twenty-four hours after transfection, the transfection media was replaced with fresh media. The cells were harvested two days after transfection and microsomal membrane vesicles were prepared for single channel measurements in the lipid bilayer reconstitution system.
HEK-293 cells transfected with pCEP4(CFTR) were harvested and homogenized using a combination of hypotonic lysis and Dounce homogenization in the presence of protease inhibitors (Ma et al., 1997, Ma et al., 1996, Xie et al., 1995). Microsomes were collected by centrifugation of postnuclear supernatant (4500×g, 15 min) at 100,000×g for 20 min and resuspended in a buffer containing 250 mM sucrose, 10 mM HEPES, pH 7.2. The membrane vesicles were stored at −75° C. until use.
The 22 amino acid peptide corresponding to NEG2 was custom made by Quality Controlled Biochemicals, Inc. The peptide was resuspended in water to a concentration of 1 mg/ml and pH was adjusted to a physiological range (7.2-7.4) using KOH and HCl. […]

ΔNEG2-CFTR channel = target: T2, ΔNEG2-CFTR channel (Homo sapiens, UniProt P13569, DEL817-838); assay: Single channel recording of ΔNEG2-CFTR reconstituted in planar lipid bilayer; type: biochemical; conditions: 0.44 μM NEG2 peptide, −80 mV, 2 mM ATP, no PKA
T2 construct: made in house; host or cells: 293-EBNA HEK cells (Invitrogen), transient transfection with pCEP4(ΔNEG2); microsomal membrane vesicles
T2 sequence (P13569 with tags, fused parts or gaps DEL817-838): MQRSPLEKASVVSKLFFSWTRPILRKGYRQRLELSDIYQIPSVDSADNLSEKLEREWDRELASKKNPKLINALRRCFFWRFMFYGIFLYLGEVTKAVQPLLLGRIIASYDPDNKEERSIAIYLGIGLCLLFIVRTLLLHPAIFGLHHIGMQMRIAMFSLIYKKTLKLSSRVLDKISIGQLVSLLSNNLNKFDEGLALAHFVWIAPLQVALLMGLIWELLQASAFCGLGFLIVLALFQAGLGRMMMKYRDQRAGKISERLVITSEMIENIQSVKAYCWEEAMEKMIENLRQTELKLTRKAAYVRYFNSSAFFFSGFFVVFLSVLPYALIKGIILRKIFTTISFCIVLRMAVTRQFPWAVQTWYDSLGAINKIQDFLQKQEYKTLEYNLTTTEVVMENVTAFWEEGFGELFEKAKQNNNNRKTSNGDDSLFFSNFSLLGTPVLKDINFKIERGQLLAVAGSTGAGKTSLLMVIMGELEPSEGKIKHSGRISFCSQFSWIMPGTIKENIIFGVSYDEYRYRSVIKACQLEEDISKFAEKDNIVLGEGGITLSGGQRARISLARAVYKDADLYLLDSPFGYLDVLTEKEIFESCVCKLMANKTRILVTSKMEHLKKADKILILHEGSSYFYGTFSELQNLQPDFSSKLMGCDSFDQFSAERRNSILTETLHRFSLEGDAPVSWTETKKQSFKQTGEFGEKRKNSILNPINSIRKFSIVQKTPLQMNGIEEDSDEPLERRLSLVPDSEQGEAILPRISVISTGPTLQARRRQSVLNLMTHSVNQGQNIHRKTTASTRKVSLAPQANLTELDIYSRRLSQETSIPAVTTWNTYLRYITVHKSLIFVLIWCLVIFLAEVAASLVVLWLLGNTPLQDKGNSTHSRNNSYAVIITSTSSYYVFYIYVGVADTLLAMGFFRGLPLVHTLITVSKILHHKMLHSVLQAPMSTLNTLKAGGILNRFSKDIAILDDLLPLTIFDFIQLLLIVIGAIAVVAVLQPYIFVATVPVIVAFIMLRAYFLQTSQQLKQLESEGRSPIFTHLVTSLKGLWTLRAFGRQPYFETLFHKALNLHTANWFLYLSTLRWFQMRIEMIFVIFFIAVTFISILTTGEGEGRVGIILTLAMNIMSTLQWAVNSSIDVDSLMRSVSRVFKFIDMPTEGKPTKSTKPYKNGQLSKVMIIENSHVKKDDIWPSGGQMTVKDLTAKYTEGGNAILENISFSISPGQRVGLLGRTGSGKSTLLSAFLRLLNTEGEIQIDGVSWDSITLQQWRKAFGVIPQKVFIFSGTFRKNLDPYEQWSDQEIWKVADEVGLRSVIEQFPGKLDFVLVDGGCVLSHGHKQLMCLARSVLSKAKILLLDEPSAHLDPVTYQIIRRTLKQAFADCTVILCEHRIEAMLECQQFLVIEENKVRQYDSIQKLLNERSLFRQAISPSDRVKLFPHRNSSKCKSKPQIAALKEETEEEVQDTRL
Text: Single channel measurements indicate that the ΔNEG1-CFTR channel is similar to wt-CFTR in its PKA dependence. No chloride channels are observed in the absence of PKA (FIG. 2A) and the open probability in the presence of PKA and ATP is similar to wt-CFTR. In contrast, the ΔNEG2-CFTR channel opens without PKA (FIG. 2A). The constitutive activity of the ΔNEG2-CFTR channel is unlikely to be due to the endogenous phosphorylation of the ΔNEG2-CFTR protein, since protein phosphatase 2A, which decreases activity of the wt-CFTR opened by PKA and ATP (Ma et al., 1997), has no effect on the ΔNEG2-CFTR channel (n=4).
as §1, with “observed. […]” for “observed.”

[1] = peptide-stimulated, 4.4 μM NEG2 peptide, −80 mV

T1 sequence (P13569 whole entry): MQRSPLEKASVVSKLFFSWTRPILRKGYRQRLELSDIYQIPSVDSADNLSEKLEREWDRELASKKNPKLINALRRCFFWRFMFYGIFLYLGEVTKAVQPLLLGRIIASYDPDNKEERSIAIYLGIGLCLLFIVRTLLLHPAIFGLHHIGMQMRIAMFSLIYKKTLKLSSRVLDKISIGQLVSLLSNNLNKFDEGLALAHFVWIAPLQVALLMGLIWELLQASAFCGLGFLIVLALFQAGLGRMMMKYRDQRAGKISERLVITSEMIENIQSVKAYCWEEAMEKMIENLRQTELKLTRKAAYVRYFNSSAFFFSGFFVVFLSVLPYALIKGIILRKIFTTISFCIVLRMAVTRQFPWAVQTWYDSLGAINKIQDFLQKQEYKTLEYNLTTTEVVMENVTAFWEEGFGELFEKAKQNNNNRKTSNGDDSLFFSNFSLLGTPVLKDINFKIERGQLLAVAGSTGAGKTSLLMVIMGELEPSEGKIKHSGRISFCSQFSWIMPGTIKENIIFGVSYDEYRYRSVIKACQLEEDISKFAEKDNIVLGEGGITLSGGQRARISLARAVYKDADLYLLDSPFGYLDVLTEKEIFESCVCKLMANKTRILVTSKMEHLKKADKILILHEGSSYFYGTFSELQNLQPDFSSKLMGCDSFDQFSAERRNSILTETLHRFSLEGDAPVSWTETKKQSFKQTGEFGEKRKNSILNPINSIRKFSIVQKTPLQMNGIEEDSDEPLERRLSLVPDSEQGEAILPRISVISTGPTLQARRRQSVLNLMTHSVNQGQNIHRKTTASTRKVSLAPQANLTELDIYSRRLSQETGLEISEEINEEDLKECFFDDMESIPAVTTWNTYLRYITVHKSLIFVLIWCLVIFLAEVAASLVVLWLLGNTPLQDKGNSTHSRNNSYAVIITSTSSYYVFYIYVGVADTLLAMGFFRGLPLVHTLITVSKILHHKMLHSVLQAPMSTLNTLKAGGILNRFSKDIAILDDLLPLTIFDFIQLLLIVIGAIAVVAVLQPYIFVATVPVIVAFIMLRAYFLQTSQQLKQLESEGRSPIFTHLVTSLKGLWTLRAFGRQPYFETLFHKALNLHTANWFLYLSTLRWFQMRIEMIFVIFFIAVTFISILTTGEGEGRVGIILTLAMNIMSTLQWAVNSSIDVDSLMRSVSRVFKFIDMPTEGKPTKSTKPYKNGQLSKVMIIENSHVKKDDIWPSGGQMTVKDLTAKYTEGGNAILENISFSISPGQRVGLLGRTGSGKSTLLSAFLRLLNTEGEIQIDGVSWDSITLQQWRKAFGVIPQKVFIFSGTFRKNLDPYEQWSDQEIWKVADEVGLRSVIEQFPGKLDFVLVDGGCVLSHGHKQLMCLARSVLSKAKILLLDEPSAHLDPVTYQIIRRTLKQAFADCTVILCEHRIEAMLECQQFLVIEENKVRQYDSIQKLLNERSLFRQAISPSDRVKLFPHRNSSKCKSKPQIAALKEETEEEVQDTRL

NEG2 peptide: Synthetic 22 amino acid peptide corresponding to NEG2, amino acids 817-838 of the CFTR R domain (GLEISEEINEEDLKECFFDDME; listed as Homo sapiens)
change of open probability during stimulation (wt-CFTR channel; peptide added to cis-intracellular side, 2 mM ATP, 50 units PKA/ml): more than doubles
P2, probability of the intermediate closed component (wt-CFTR channel; [1]): 0.957
P3, probability of the long closed component (wt-CFTR channel; [1]): 0.043
intermediate closed time τc2 (wt-CFTR channel; peptide-stimulated, 4.4 μM NEG2 peptide, −80 mV, closed-burst histogram, delimiter 40 ms): 105 ms
concentration at which stimulatory response was observed (wt-CFTR channel; stimulation in 6 of 7 experiments, cis-intracellular addition): ≥ 0.44 µM
concentration at which profound inhibition was observed (wt-CFTR channel; three channels, cis-intracellular addition): ≥ 4.4 µM
effect on ΔNEG2-CFTR channel activity (ΔNEG2-CFTR channel): stimulation is observed
